In US20030108992A1 (US Dept. of Health and Human Services, published 2003):

Target: T1, p80 TNFR (endogenous) (UniProt P20333 23-461, limits assumed)
T1 construct: whole, on cells; also called TNFR2; p75
T1 sequence (looked up): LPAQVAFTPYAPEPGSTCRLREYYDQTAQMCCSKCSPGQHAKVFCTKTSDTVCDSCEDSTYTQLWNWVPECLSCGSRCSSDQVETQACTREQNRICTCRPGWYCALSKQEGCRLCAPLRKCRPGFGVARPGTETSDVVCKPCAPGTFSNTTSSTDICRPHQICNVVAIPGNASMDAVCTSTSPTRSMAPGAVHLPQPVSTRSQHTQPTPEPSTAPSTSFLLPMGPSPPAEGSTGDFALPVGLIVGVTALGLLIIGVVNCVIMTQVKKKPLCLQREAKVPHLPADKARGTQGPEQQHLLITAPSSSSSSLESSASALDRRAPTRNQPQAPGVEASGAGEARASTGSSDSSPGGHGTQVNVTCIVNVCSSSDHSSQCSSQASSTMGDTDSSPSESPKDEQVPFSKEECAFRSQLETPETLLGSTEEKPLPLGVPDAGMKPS
Assay: DTSSP crosslinking of H9 cells, anti-p60 immunoprecipitation, Western blot
Procedure: H9 lymphoma cells were washed and resuspended in PBS. […] Cells were then treated with 2 mM of the crosslinker DTSSP (Pierce) for 30 minutes and the reaction was quenched with 20 mM Tris.Cl [pH 7.5] for 15 minutes on ice. The cells were lysed in 150 mM NaCl, 20 mM Tris.Cl [pH 7.5], 1 mM EDTA, 30 mM NaF, 2 mM b-glycerophosphate and 1 mM sodium orthovanadate with protease inhibitors added (Boehringer Mannheim). […] Densitometry was performed with a Kodak Image Station 440.

B1: p60 TNFR (endogenous) (receptor, UniProt P19438 30-455, looked up)
chain: LVPHLGDREKRDSVCPQGKYIHPQNNSICCTKCHKGTYLYNDCPGPGQDTDCRECESGSFTASENHLRHCLSCSKCRKEMGQVEISSCTVDRDTVCGCRKNQYRHYWSENLFQCFNCSLCLNGTVHLSCQEKQNTVCTCHAGFFLRENECVSCSNCKKSLECTKLCLPQIENVKGTEDSGTTVLLPLVIFFGLCLLSLLFIGLMYRYQRWKSKLYSIVCGKSTPEKEGELEGTTTKPLAPNPSFSPTPGFTPTLGFSPVPSSTFTSSSTYTPGDCPNFAAPRREVAPPYQGADPILATALASDPIPNPLQKWEDSAHKPQSLDTDDPATLYAVVENVPPLRWKEFVRRLGLSDHEIDRLELQNGRCLREAQYSMLATWRRRTPRREATLELLGRVLRDMDLLGCLEDIEEALCGPAALPPAPSLLR
notes: whole, on cells; also called endogenous p60 receptor; TNFR1
B1: no binding.
